Experimental data reported in patent US20140274782A1, “AFFINITY REAGENTS AND METHODS FOR DETECTION, PURIFICATION, AND PROTEOMIC ANALYSIS OF METHYLATED PROTEINS” (The Board of Trustees of the Leland Stanford Junior …, priority 2013, published 2014).

T1: G9a and GLP (Homo sapiens, UniProt Q96KQ7+Q9H9B1)
T1 sequence (Q96KQ7 2-1210 limits assumed): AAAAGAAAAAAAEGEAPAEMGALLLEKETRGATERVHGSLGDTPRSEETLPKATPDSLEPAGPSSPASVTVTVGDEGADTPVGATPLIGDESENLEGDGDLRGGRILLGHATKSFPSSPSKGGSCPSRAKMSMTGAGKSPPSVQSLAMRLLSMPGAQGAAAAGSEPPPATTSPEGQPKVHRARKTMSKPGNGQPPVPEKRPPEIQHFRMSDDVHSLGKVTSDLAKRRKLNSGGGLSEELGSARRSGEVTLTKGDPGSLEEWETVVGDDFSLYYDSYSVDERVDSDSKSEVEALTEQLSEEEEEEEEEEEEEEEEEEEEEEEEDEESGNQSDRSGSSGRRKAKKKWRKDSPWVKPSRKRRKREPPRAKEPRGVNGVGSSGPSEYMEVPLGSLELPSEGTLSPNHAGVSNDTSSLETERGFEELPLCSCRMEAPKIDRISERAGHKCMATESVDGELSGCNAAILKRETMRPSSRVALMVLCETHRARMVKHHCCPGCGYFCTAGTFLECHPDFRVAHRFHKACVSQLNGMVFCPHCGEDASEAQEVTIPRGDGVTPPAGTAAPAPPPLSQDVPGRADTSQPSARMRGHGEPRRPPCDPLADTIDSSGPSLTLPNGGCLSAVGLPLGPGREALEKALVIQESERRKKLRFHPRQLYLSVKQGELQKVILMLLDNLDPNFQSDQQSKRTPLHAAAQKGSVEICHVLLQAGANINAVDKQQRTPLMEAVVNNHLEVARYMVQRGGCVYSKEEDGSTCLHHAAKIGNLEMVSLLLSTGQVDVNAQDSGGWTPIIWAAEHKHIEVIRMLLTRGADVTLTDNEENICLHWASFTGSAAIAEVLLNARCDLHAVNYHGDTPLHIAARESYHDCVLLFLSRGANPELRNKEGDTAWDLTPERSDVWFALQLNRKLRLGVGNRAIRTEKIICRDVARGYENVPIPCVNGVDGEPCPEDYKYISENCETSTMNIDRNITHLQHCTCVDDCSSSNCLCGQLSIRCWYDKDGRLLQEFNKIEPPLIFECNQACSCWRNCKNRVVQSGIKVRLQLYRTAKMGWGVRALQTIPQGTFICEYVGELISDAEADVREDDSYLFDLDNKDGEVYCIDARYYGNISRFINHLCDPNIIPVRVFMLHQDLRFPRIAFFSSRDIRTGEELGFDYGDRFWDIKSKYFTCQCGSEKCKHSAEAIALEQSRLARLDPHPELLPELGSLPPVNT
T1 sequence (Q9H9B1 2-1298 limits assumed): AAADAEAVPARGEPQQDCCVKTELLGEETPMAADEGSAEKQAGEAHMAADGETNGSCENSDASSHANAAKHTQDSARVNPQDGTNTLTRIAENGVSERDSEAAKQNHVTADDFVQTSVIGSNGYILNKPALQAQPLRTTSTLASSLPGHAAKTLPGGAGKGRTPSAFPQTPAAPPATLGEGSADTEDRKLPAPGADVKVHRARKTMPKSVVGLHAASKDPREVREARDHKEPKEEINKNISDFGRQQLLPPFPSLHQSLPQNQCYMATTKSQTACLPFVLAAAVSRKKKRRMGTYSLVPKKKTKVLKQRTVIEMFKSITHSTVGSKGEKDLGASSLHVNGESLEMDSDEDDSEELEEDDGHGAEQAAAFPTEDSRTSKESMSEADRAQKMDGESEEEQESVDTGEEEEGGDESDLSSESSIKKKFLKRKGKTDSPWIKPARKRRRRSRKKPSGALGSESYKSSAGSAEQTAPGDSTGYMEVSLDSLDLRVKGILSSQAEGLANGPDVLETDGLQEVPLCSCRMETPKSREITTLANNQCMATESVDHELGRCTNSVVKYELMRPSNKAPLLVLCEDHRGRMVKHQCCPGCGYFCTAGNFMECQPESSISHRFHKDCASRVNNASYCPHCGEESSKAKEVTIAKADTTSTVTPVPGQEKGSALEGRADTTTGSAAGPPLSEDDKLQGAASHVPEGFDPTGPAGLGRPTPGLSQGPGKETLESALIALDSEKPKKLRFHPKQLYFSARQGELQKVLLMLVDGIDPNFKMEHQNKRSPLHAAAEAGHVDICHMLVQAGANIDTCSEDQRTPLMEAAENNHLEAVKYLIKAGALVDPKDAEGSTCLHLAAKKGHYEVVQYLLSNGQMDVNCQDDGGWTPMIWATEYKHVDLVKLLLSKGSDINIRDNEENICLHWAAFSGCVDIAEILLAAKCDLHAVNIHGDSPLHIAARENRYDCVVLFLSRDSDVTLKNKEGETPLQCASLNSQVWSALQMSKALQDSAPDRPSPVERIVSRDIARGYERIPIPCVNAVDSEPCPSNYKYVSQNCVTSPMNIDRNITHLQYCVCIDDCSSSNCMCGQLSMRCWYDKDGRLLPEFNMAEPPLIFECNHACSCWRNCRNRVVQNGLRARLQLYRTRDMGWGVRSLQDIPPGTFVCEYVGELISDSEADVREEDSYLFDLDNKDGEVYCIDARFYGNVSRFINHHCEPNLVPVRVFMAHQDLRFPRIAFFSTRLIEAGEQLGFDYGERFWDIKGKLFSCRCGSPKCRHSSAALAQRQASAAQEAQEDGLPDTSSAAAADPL

B1: ILKAP (protein, UniProt Q9H0C8 1-392, looked up)
Integrin-linked …: MDLFGDLPEPERSPRPAAGKEAQKGPLLFDDLPPASSTDSGSGGPLLFDDLPPASSGDSGSLATSISQMVKTEGKGAKRKTSEEEKNGSEELVEKKVCKASSVIFGLKGYVAERKGEREEMQDAHVILNDITEECRPPSSLITRVSYFAVFDGHGGIRASKFAAQNLHQNLIRKFPKGDVISVEKTVKRCLLDTFKHTDEEFLKQASSQKPAWKDGSTATCVLAVDNILYIANLGDSRAILCRYNEESQKHAALSLSKEHNPTQYEERMRIQKAGGNVRDGRVLGVLEVSRSIGDGQYKRCGVTSVPDIRRCQLTPNDRFILLACDGLFKVFTPEEAVNFILSCLEDEKIQTREGKSAADARYEAACNRLANKAVQRGSADNVTVMVVRIGH
B2: TRMT61A (protein, UniProt Q96FX7 2-289, looked up)
tRNA …: SFVAYEELIKEGDTAILSLGHGAMVAVRVQRGAQTQTRHGVLRHSVDLIGRPFGSKVTCGRGGWVYVLHPTPELWTLNLPHRTQILYSTDIALITMMLELRPGSVVCESGTGSGSVSHAIIRTIAPTGHLHTVEFHQQRAEKAREEFQEHRVGRWVTVRTQDVCRSGFGVSHVADAVFLDIPSPWEAVGHAWDALKVEGGRFCSFSPCIEQVQRTCQALAARGFSELSTLEVLPQVYNVRTVSLPPPDLGTGTDGPAGSDTSPFRSGTPMKEAVGHTGYLTFATKTPG
B3: MINA (protein, UniProt Q8IUF8 1-465, looked up)
Ribosomal oxygenase 2: MPKKAKPTGSGKEEGPAPCKQMKLEAAGGPSALNFDSPSSLFESLISPIKTETFFKEFWEQKPLLIQRDDPALATYYGSLFKLTDLKSLCSRGMYYGRDVNVCRCVNGKKKVLNKDGKAHFLQLRKDFDQKRATIQFHQPQRFKDELWRIQEKLECYFGSLVGSNVYITPAGSQGLPPHYDDVEVFILQLEGEKHWRLYHPTVPLAREYSVEAEERIGRPVHEFMLKPGDLLYFPRGTIHQADTPAGLAHSTHVTISTYQNNSWGDFLLDTISGLVFDTAKEDVELRTGIPRQLLLQVESTTVATRRLSGFLRTLADRLEGTKELLSSDMKKDFIMHRLPPYSAGDGAELSTPGGKLPRLDSVVRLQFKDHIVLTVLPDQDQSDEAQEKMVYIYHSLKNSRETHMMGNEEETEFHGLRFPLSHLDALKQIWNSPAISVKDLKLTTDEEKESLVLSLWTECLIQVV
B4: PABPN1 (protein, UniProt Q86U42 2-306, looked up)
Polyadenylate-binding protein …: AAAAAAAAAAGAAGGRGSGPGRRRHLVPGAGGEAGEGAPGGAGDYGNGLESEELEPEELLLEPEPEPEPEEEPPRPRAPPGAPGPGPGSGAPGSQEEEEEPGLVEGDPGDGAIEDPELEAIKARVREMEEEAEKLKELQNEVEKQMNMSPPPGNAGPVIMSIEEKMEADARSIYVGNVDYGATAEELEAHFHGCGSVNRVTILCDKFSGHPKGFAYIEFSDKESVRTSLALDESLFRGRQIKVIPKRTNRPGISTTDRGFPRARYRARTTNYNSSRSRFYSGFNSRPRGRVYRGRARATSWYSPY
B5: UBAP2 (protein, UniProt Q5T6F2 1-1119, looked up)
Ubiquitin-associated protein 2: MMTSVSSDHCRGAREKPQISAAQSTQPQKQVVQATAEQMRLAQVIFDKNDSDFEAKVKQLMEVTGKNQDECIVALHDCNGDVNKAINILLEGNSDTTSWETVGCKKKNFAKENSENKENREKKSEKESSRGRGNNNRKGRGGNRGREFRGEENGIDCNQVDKPSDRGKRARGRGFGRGRGRGAGRFSTQGMGTFNPADYSDSTSTDVCGTKLVVWEAAQNGADEGTELASNTHNIAQDLSNKSSYGLKGAWKNSVEEWTTEDWTEDLSETKVFTASSAPAENHILPGQSIDLVALLQKPVPHSQASEANSFETSQQQGFGQALVFTNSQHNNQMAPGTGSSTAVNSCSPQSLSSVLGSGFGELAPPKMANITSSQILDQLKAPSLGQFTTTPSTQQNSTSHPTTTTSWDLKPPTSQSSVLSHLDFKSQPEPSPVLSQLSQRQQHQSQAVTVPPPGLESFPSQAKLRESTPGDSPSTVNKLLQLPSTTIENISVSVHQPQPKHIKLAKRRIPPASKIPASAVEMPGSADVTGLNVQFGALEFGSEPSLSEFGSAPSSENSNQIPISLYSKSLSEPLNTSLSMTSAVQNSTYTTSVITSCSLTSSSLNSASPVAMSSSYDQSSVHNRIPYQSPVSSSESAPGTIMNGHGGGRSQQTLDTPKTTGPPSALPSVSSLPSTTSCTALLPSTSQHTGDLTSSPLSQLSSSLSSHQSSLSAHAALSSSTSHTHASVESASSHQSSATFSTAATSVSSSASSGASLSSSMNTANSLCLGGTPASASSSSSRAAPLVTSGKAPPNLPQGVPPLLHNQYLVGPGGLLPAYPIYGYDELQMLQSRLPVDYYGIPFAAPTALASRDGSLANNPYPGDVTKFGRGDSASPAPATTPAQPQQSQSQTHHTAQQPFVNPALPPGYSYTGLPYYTGMPSAFQYGPTMFVPPASAKQHGVNLSTPTPPFQQASGYGQHGYSTGYDDLTQGTAAGDYSKGGYAGSSQAPNKSAGSGPGKGVSVSSSTTGLPDMTGSVYNKTQTFDKQGFHAGTPPPFSLPSVLGSTGPLASGAAPGYAPPPFLHILPAHQQPHSQLLHHHLPQDAQSGSGQRSQPSSLQPKSQASKPAYGNSPYWTN

test system: 3×MBT domain of L3MBTL1; assay: Triple SILAC pull-down, 3xMBT/3xMBTD355N ratio (cytoplasmic, nuclear and chromatin fractions of 293T cells); assay type: binding, human; settings: SILAC ratio, pull-down 3xMBT vs 3xMBTD355N; experiment with UNC0638 in heavy SILAC media;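 note: proteins quantified with MaxQuant, requiring at least two unique peptides and quantification in both label directions, normalized to the mean of proteins from a digested loading control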

First: B1
Second: B2
The “3xMBT/D355N UNC Heavy” value of the first is higher: 3.22 log base 2 for the first, 2.78 log base 2 for the second.

First: B3
Second: B4
The “3xMBT/D355N UNC Heavy” value of the first is lower: 2.27 log base 2 for the first, 3.77 log base 2 for the second.

B5 was tested, and the “3xMBT/D355N UNC Heavy” value was 2.90 log base 2.

same assay, conditions: SILAC ratio, pull-down 3xMBT vs 3xMBTD355N; experiment with UNC0638 in light SILAC media

Compared with B1, B2 is higher in “3xMBT/D355N UNC Light” value: 2.54 log base 2 for the first, 3.82 log base 2 for the second.

Compared with B3, B4 is higher in “3xMBT/D355N UNC Light” value: 2.12 log base 2 for the first, 4.04 log base 2 for the second.

In the case of B5, the “3xMBT/D355N UNC Light” value is reported as 1.92 log base 2.

molecular target: T1, G9a and GLP; assay: Triple SILAC pull-down after UNC0638 treatment of 293T cells, DMSO/UNC0638 ratio of protein captured by 3×MBT; assay type: cell-based; design: cells were treated for 24 hours with UNC0638 at 2.5 μM or DMSO vehicle control; endogenous in cells; host or cells: HEK 293T; settings: SILAC ratio DMSO/UNC0638 of protein pulled down with 3xMBT; UNC0638 in heavy SILAC media;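 note: mass spectrometry (Q-Exactive) SILAC quantitation, DMSO/UNC0638 ratio computed after subtracting 3×MBTD355N mutant pull-down background, only proteins with at least twofold 3×MBT over mutant signal considered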
Description: For UNC0638 treatments cells were treated for 24 hours with UNC0638 at 2.5 μM or DMSO vehicle control. One experiment treated cells in light media with UNC0638, the other treated cells in heavy media. Both experiments included cells in medium media treated with DMSO for negative control pull-down with 3×MBTD355N.
UNC0638 treatment experiments used a Q-Exactive mass spectrometer (ThermoFisher Scientific). A 25 cm HPLC column with 3 μm Reliasil (Orochem) was used to separate peptides over a 4 hour gradient from 0 to 75% acetonitrile. Ions were generated using a custom nanospray source flowing at 250 nL/minute. Mass spectrometry settings were 70,000 MS1 resolution, data dependent selection of up to 20 precursor ions per cycle, dynamic exclusion of 30 seconds and isolation window of 2 m/z.
For UNC0638 experiments the treated vs. untreated ratio was determined by subtracting the value from 3×MBTD355N prior to dividing values from the light and heavy channels. Only proteins showing a two-fold signal to background ratio (3×MBT/3×MBTD355N) were evaluated as potential G9a/GLP substrates.

B1 and B2 are the same in “Relative to UNC0638 UNC Heavy” value: −0.07 log base 2 for the first, −0.07 log base 2 for the second.

Going from B3 to B4, the “Relative to UNC0638 UNC Heavy” value falls from 0.34 log base 2 to 0.21 log base 2.

For B5, the “Relative to UNC0638 UNC Heavy” value was 0.20 log base 2.

same assay, conditions: SILAC ratio DMSO/UNC0638 of protein pulled down with 3xMBT; UNC0638 in light SILAC media

First: B1
Second: B2
The “Relative to UNC0638 UNC Light” value of the first is higher: 0.33 log base 2 for the first, 0.29 log base 2 for the second.

Compared with B3, B4 is higher in “Relative to UNC0638 UNC Light” value: −0.08 log base 2 for the first, 0.04 log base 2 for the second.

For B5, the “Relative to UNC0638 UNC Light” value was 0.04 log base 2.

same assay, conditions: average of UNC Light and UNC Heavy experiments

First: B1
Second: B2
The “Relative to UNC0638 Average” value of the first is higher: 0.13 log base 2 for the first, 0.11 log base 2 for the second.

B3 and B4 are the same in “Relative to UNC0638 Average” value: 0.13 log base 2 for the first, 0.13 log base 2 for the second.

For B5, the “Relative to UNC0638 Average” value was 0.12 log base 2.
